Measurements from the supplement of paper PMC7125110.
± gives the standard error. For some assays here: Variants at the floor of the assay were thinned out.

B1: glmS ribozyme (parent)
chain: AUAAAAGCGCCAGAACUACAGAAAUGUAGUUGACGAGGAGGAGGUUUAUCGAAUUUUCGGCGGAUGCCUCCAAA

Columns and labels:
Details in all cases: with glucosamine-6-phosphate
[1] = variants of: B1; test: kcat; higher = faster cleavage; RNA array
Procedure, shortened: (§1)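 Weighted Michaelis–Menten fits across concentrations supplied kcat and KM, based on kobs from one- or two-exponential decay fits to normalised per-tile medians. The data came from barcoded ribozyme variants transcribed in situ by E. coli RNA polymerase on sequenced MiSeq chips and tracked at 37 °C by a hybridised Cy3 probe. Glucosamine-6-phosphate (40 μM to 10 mM) in HEPES/KCl/Mg(OAc)2 buffer was flowed in.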

[2] = variants of: B1; test: self-cleavage kobs at 40 uM GlcN6P; higher = faster cleavage; RNA array
Procedure, shortened: as §1

[3] = variants of: B1; test: self-cleavage kobs at 160 uM GlcN6P; higher = faster cleavage; RNA array
Procedure, shortened: as §1

[4] = variants of: B1; test: self-cleavage kobs at 640 uM GlcN6P; higher = faster cleavage; RNA array
Procedure, shortened: as §1

[5] = variants of: B1; test: self-cleavage kobs at 2500 uM GlcN6P; higher = faster cleavage; RNA array
Procedure, shortened: as §1

[6] = variants of: B1; test: self-cleavage kobs at 10000 uM GlcN6P; higher = faster cleavage; RNA array
Procedure, shortened: as §1

[7] = variants of: B1; test: KM; higher = weaker cofactor use; RNA array
Procedure, shortened: as §1

Variant	kcat [1] [s⁻¹]	self-cleavage kobs at 40 uM GlcN6P [2] [s⁻¹]	self-cleavage kobs at 160 uM GlcN6P [3] [s⁻¹]	self-cleavage kobs at 640 uM GlcN6P [4] [s⁻¹]	self-cleavage kobs at 2500 uM GlcN6P [5] [s⁻¹]	self-cleavage kobs at 10000 uM GlcN6P [6] [s⁻¹]	KM [7] [µM]
G35C C50G	0.000276 ± 6.8e-05	3.26e-05 ± 1.4e-05	7.69e-05 ± 3.7e-05	4.8e-05 ± 1.6e-05	0.000107 ± 1.2e-05	0.000205 ± 1.5e-05	
G32A C71G	0.000224 ± 3.5e-05		5.06e-05 ± 1.5e-05	6.85e-05 ± 1.1e-05	0.00018 ± 2.8e-05	0.000195 ± 2.2e-05	1190 ± 450
A36C A52G	< 1e-05						
A36G U45A	3.07e-05 ± 8.9e-06						
A36G C70G	1.29e-05 ± 3e-06		< 1e-05				
C34G U69A	3.79e-05 ± 1.1e-05			5.16e-05 ± 1.3e-05	3.05e-05 ± 1.3e-05		
G32A U65G	0.000643 ± 0.00019			7.49e-05 ± 2.1e-05	0.000139 ± 2.7e-05	0.000374 ± 5e-05	7620 ± 3800
C34G C68G	2.55e-05 ± 1e-05						
G32A U45A	0.00555 ± 0.00055	9.16e-05 ± 1.5e-05	0.000267 ± 6.7e-05	0.00117 ± 0.00024	0.003 ± 0.001	0.00438 ± 0.00057	2580 ± 370
G32A U45G	0.000591 ± 0.00017			0.000212 ± 4.3e-05	0.000204 ± 5.3e-05	0.000488 ± 5.2e-05	
G32A C67A	0.000956 ± 0.00011		5.05e-05 ± 1.6e-05	0.000168 ± 3.4e-05	0.000586 ± 0.00011	0.000728 ± 8.2e-05	2730 ± 630
G32A C67G	0.000177 ± 2.7e-05	< 1e-05		4.83e-05 ± 6.9e-06	9.14e-05 ± 1.2e-05	0.000164 ± 2.4e-05	1890 ± 580
G32C A52G	1.94e-05 ± 5.2e-06						
G35U G37A G60U	< 1e-05				< 1e-05		
A33U	0.00014 ± 3.2e-06			2.78e-05 ± 1.1e-06	6.53e-05 ± 1.2e-06	0.000111 ± 1.4e-06	2770 ± 160
A33C	0.000505 ± 2.5e-05	1.4e-05 ± 2.6e-06	2.95e-05 ± 1.7e-06	9.27e-05 ± 1.9e-06	0.000541 ± 0.00018	0.000395 ± 6.8e-06	2800 ± 240
G35U A36C	< 1e-05	< 1e-05	< 1e-05		< 1e-05	< 1e-05	
A33C G37A	< 1e-05	< 1e-05	< 1e-05				
C34A G37U C68U	< 1e-05	< 1e-05					
G32U A64G	0.000904 ± 0.0002		4.19e-05 ± 1.1e-05	0.000178 ± 2.3e-05	0.00034 ± 4.6e-05	0.000774 ± 0.00011	3130 ± 1100

Variant	kcat [1] [s⁻¹]	self-cleavage kobs at 40 uM GlcN6P [2] [s⁻¹]	self-cleavage kobs at 160 uM GlcN6P [3] [s⁻¹]	self-cleavage kobs at 640 uM GlcN6P [4] [s⁻¹]	self-cleavage kobs at 2500 uM GlcN6P [5] [s⁻¹]	self-cleavage kobs at 10000 uM GlcN6P [6] [s⁻¹]	KM [7] [µM]
G35U G37C G60U	< 1e-05	< 1e-05		< 1e-05			
A36C C68G	7.04e-05 ± 2.3e-05	3.7e-05 ± 1.3e-05		0.000107 ± 1.7e-05	4.55e-05 ± 1.3e-05	8.61e-05 ± 3.4e-05	
C34A U46G	< 1e-05	< 1e-05		< 1e-05	< 1e-05	< 1e-05	
A36C C58G	2.16e-05 ± 5.9e-06						
C34G U56G C70U	3.47e-05 ± 8.1e-06			3.21e-05 ± 1.5e-05	4.52e-05 ± 2.2e-05		
U31G A53U	0.019 ± 0.0084	0.000188 ± 3e-05		0.00281 ± 0.00087	0.00587 ± 0.002	0.0128 ± 0.0024	
A36G G63U C70A	1.84e-05 ± 7.8e-06						
G37A A53U C71U	0.00135 ± 0.00053	7.9e-05 ± 3.8e-05		0.000464 ± 8.3e-05	0.000695 ± 0.00015	0.00165 ± 0.00033	
G35U C50A	8.05e-05 ± 9.8e-06				4.74e-05 ± 9e-06	6.59e-05 ± 1.2e-05	1970 ± 740
G32U U56C	0.000177 ± 3.9e-05	< 1e-05		2.54e-05 ± 8.9e-06	0.000105 ± 2.1e-05	0.000127 ± 2.4e-05	2990 ± 1300
A33U C50U C68U	2.95e-05 ± 1.3e-05			< 1e-05			
C34U U69C	< 1e-05						
G37A G38U	< 1e-05		< 1e-05				
G32A G40C	0.00047 ± 8.1e-05			5.53e-05 ± 9.2e-06	0.000126 ± 1.8e-05	0.000309 ± 3.3e-05	5730 ± 1600
C34G C67A	1.49e-05 ± 6.7e-06		< 1e-05				
U31G G59A	0.000131 ± 8.6e-06	< 1e-05				4.18e-05 ± 1.3e-05	
C34G C70G	1.99e-05 ± 6.6e-07						234 ± 89
C34U G35A C68U	1.41e-05 ± 3.1e-06						
G37A A53C	0.000609 ± 7.9e-05			0.00012 ± 2.1e-05	0.00027 ± 3.6e-05	0.000468 ± 5.8e-05	3030 ± 740
